Publication PMC2673096

Biological target: FLAG-HA-HA (F2H)-tagged tbRAP1 at its endogenous locus (Trypanosoma brucei (endogenous locus in T. brucei cells))
Test: co-IP

Substance: endogenous tbTRF (natural protein)
- percent co-immunoprecipitated: 10%
